Data as given in paper PMC7589778 (Viruses, 2020).

B1: Human mitochondrial LysRS with a C-terminal HA-tag (enzyme)
chain: not shown
modifications: homodimer; mature mitochondrial form (19 specific + 576 shared residues); HA-tag left out
B2: C-terminal domain of HIV-1 integrase starting at residue 213, C-terminal His-tag (domain or fragment)
chain: LQKQITKIQNFRVYYRDSRDPVWKGPAKLLWKGEGAVVIQDNSDIKVVPRRKAKIIRDYGKQMAGDDCVASRQDED
modifications: homodimer; mature mitochondrial form (19 specific + 576 shared residues); HA-tag left out
B3: HIV-1 integrase with a deletion of the NTD, C-terminal His-tag (domain or fragment)
chain: MHGQVDCSPGIWQLDCTHLEGKVILVAVHVASGYIEAEVIPAETGQETAYFLLKLAGRWPVKTVHTDNGSNFTSTTVKAACWWAGIKQEFGIPYNPQSQGVIESMNKELKKIIGQVRDQAEHLKTAVQMAVFIHNFKRKGGIGGYSAGERIVDIIATDIQTKELQKQITKIQNFRVYYRDSRDPVWKGPAKLLWKGEGAVVIQDNSDIKVVPRRKAKIIRDYGKQMAGDDCVASRQDED
modifications: homodimer; mature mitochondrial form (19 specific + 576 shared residues); HA-tag left out
B4: HIV-1 integrase catalytic core domain (deletion of the NTD and the CTD), C-terminal His-tag (domain or fragment)
chain: MHGQVDCSPGIWQLDCTHLEGKVILVAVHVASGYIEAEVIPAETGQETAYFLLKLAGRWPVKTVHTDNGSNFTSTTVKAACWWAGIKQEFGIPYNPQSQGVIESMNKELKKIIGQVRDQAEHLKTAVQMAVFIHNFKRKGGIGGYSAGERIVDIIATDIQTKE
modifications: homodimer; mature mitochondrial form (19 specific + 576 shared residues); HA-tag left out
B5: IN-CTD222 with a deletion of 15 C-terminal residues, C-terminal His-tag (domain or fragment)
chain: NFRVYYRDSRDPVWKGPAKLLWKGEGAVVIQDNSDIKVVPRRKAKIIRDYGK
notes: source: E. coli BL21(DE3), purified (Ni-NTA, Mono S); not shown: His6, C-terminal, kept

Experiments:
Assay in all cases: AlphaScreen or HTRF
Conditions in all cases: both partners purified
[1] = biological target: T1, Full-length integrase from HIV-1 with a C-terminal His-tag (HIV-1)
T1 construct: source: E. coli BL21(DE3), purified (Ni-NTA, Mono S); not shown: His6, C-terminal, kept

[2] = biological target: Human mitochondrial LysRS with a C-terminal HA-tag (human, UniProt Q15046-2 1-625)
[3] = biological target: B1

Binder	Kd [2] [nM]	other results
B1		Kd [1]: 2.6 nM
B2	190	
B3	3	
B4	> 400	
B5		Kd [3]: 142 nM
